According to the RNAGym collection of RNA variant scans (doi:10.1073/pnas.2313332121):

B1: TPR t1 (parent)
chain: GACCAAUCUGCCCUCAGAGCUCGAGAACAUCUUCGGAUGCAGAGGAGGCAGGCUUCGGUGGCGCGAUAGCGCCAACGUCCUCAACCUCCAAUGCAUCCCACCACAUGAUGAUGCCUGAAGAGCCUUGGUUUUUUG

Variants of: B1
Test: polymerase ribozyme fitness, log enrichment relative to wild type (log ratio); higher = more active; in vitro selection for triplet polymerase activity
Summary of the method: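 In triplicate, a single round of in vitro selection was run on each mutant library, PCR-built and transcribed, covering one subunit of a heterodimeric triplet polymerase ribozyme. Frozen incubation at −7 °C followed annealing with a biotinylated primer, partner subunit and triplets, and extended constructs were then gel-excised, streptavidin-captured and taken through RT-PCR. Fitness is the logarithm of genotype enrichment over wild-type enrichment, from inverse-variance-weighted replicate averages of Illumina-sequenced inputs and outputs. […] only genotypes with ≥10 input reads and ≥1 read per output were kept.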

**Q.** Which “polymerase ribozyme fitness (log ratio)” value does the source give for GACCAAUCUGGCCUCAGAGCUCGAGAACAUCUUCGGAUGCAGAGGAGGCAGGCUUCGGUGGCGCGAUAGCGCCAACGUCCUCAACCUCCAAUGCAUCCCAUCACAUGAUGAUGCCUGAAGAGCCUUGGUUUUUUG here?
**A.** The value was 0.142.

**Q.** For GACCAAUCUGGCCUCAGAGCUCGAGAACAUCUUCGGAUGCAGAGGAGGCAGGCUUCGGUGUCGCGAUAGCGCCAACGUCCUCAACCUCCAAUGCACCCCACCACAUGAUGAUGCCUGAAGAGCCUUGGUUUUUUG, which “polymerase ribozyme fitness (log ratio)” value is on record?
**A.** The value was -0.274.

**Q.** Which “polymerase ribozyme fitness (log ratio)” value does the source give for GACCAAUCUGGCCUCAGAGCUCGAGAACAUCUUCGGAUUCAGAGGAGGGAGGCUUCGGUGGCGUGAUAGCGCCAACGUCCUCAACCUCCAAUGCAUCCCACCACAUGAUGAUGCCUCAAGAGCCUUGGUUUUUUG here?
**A.** The value was -4.26.

**Q.** With GACCAAUCUGGCCUCAGAGCUCGAGAACAUCUUCGUAUGCAGAGGAGGCAGGCUUCGGUGGCACGAUAGCGCCAACGUCCUCAACCUCCAAUGCAUCGCACCACAUGAUGAUGCCUGAAGAGCCUUGGUUUUUUG as the variant, how does the “polymerase ribozyme fitness (log ratio)” value read?
**A.** Its value is -6.37.

**Q.** For GACCAAUCUGGCCUCAAAGCUCGAGAACAUCUUCGGAUGCAGAGGAGGCAGGCUUCGGUGGCGCGAUAGCGCCAACGUCCUCAACCUCCAAUGCAUCCCACCACAUGAUGAUGCCUGAAGAGCUUUGGUUUUUUG, which “polymerase ribozyme fitness (log ratio)” value is on record?
**A.** Its value is -3.84.

**Q.** With GACCAAUCUGGCCUCAGAGCUCGAGAACAUCUUCGGAUGCAGAGGAGGCAGGCUUCGGUGACGCGAUAGCGCCAACGUCCUCAACCUCCUAUGCAUCCCACCACAUGAGGAUGCCUAAAGAGCCUUGGUUUUUUG as the variant, how does the “polymerase ribozyme fitness (log ratio)” value read?
**A.** The value was -6.12.

**Q.** With GACCAAUCUGGCCUCAGAGCUCGAGAACAUCUUCGUAUGCAGAGGAGGCAGGCUUGGGUGGCGCGAUAGCGCCAACGUCCUUAACCUCCAAUGCAUCCCACCACAUGAUGAUGCCUGAAGAGCCUUGGUUUUUUG as the variant, how does the “polymerase ribozyme fitness (log ratio)” value read?
**A.** The value was -0.948.

**Q.** With GACCAAUCUGGCCUCAGAGCUCGAGAACAUCUUCGGAUGCAGAGGAGGCAGGCUUCGGUGGCGCGAUAGCGCCAACGUCCUCAACCUCCAAUGCAUCCCACCACAUGAUGAUGACUGAAGAGCCUUGGUUUUUUG as the variant, how does the “polymerase ribozyme fitness (log ratio)” value read?
**A.** Its value is -1.06.

**Q.** With GACCAAUCUGGCCUCAGAGCUCGAGAACAUCUUCGGAUGCAGAGGAGGCAGGCUUCGGUGGCCCGAUAGCGCCAACGUCCUCAACCUCCAAUGCAUCCCACCACUUGAUGAUGCCUGAAGAGGCUUGGUUUUUUG as the variant, how does the “polymerase ribozyme fitness (log ratio)” value read?
**A.** Its value is -2.11.

**Q.** Which “polymerase ribozyme fitness (log ratio)” value does the source give for GACCAAUCUGGCCUCAGAGCUCGAGAACAUCUUCGGAUGCAGAGGAGGCAGGCUUCAGUGGCGCGAUAGCGCAAACGUCCUCAACCUCCAAUGCAUCCCACCACAUGAUGAUGCCUGAAGAGGCUUGGUUUUUUG here?
**A.** The value was 0.666.

**Q.** Which “polymerase ribozyme fitness (log ratio)” value does the source give for GACCAAUCUGGCCUCAGAGCUCGAGAACAUCUUCCGAUGCAGAGUAGGCAGGCUUCGGUGGCGCGAUAGCACCAACGUCCACAACCUCCAAUGCAUCCCACCACAUGAUGAAGCCUGAAGAGCCAUGGUUUUUUG here?
**A.** Its value is -6.05.

**Q.** For GACCAAUCUGGCCUCAGAGCUCGAGAACAUCUUCGGAUGCAGAGGAGGCAGGCUUCGGUGUCGCGAUAGCGCCAACGUCCUCAACCGCCAAUGCAUCCCACCACAUGAUGAUGCCUGAAGAGCCUUGGUUUUUUG, which “polymerase ribozyme fitness (log ratio)” value is on record?
**A.** The value was 0.243.

**Q.** With GACCAAUCUGGCCUCAGAGCUCGAGAACAUCUUCGGAUGCAGAGGAGGCAGGCUUCGGUGGCGCGAUAGCGCCAACGUCCUCAACCUCCAAUGCAUCCCACCAAAUGAUGAUGCCUGAAGAGCCUUGGUUUUUUG as the variant, how does the “polymerase ribozyme fitness (log ratio)” value read?
**A.** Its value is -1.42.

**Q.** Which “polymerase ribozyme fitness (log ratio)” value does the source give for GACCAAUCUGGCCUCAGAGCUCGAGAACAUCUUCGGAUGCAGAGGAGGCAGGCUUCUGUGGCGCGAGAGCGCCAACGUCCUCAACCUCCAAUGCAUCCCACCACAUGAUGAUGCCUGAAAAGCCUUGGUUUUUUG here?
**A.** The value was -6.74.

**Q.** Which “polymerase ribozyme fitness (log ratio)” value does the source give for GACCAAUCUGGCCUCAAAGCUCGAGAACAUCUUCGGAUGCAGAGGAGGCAGGCUUCGGUAGCGCGAUAGCGCCAACGUGCUCAACCUCCUAUGCAUCCAACCACAUGAUGAUGCCUGAAGAGCCUUGGUUUUUUG here?
**A.** Its value is -7.47.

**Q.** For GACCAAUCUGGCCUCAGAGCUCGAGAACAUCUUCGGAUGCAUAGGAGGCAGGCUUCGGAUGCGCGAUAGCGCCAACGUCCUCAACCUCCAAUGCAUCCCACCACAUGAUGAUGCCUGAAGAGCCUUGGUUUUUUG, which “polymerase ribozyme fitness (log ratio)” value is on record?
**A.** Its value is -1.24.

**Q.** With GACCAAUCUGGCCUCAGAGCUCGAGAACAUCUUCGGAUGCAGACGAGGCAGGCUUCGGUGGCGCGAUAGCGGCAACGUCCUCAACCUUCAAUGCAUCCCAUCACAUGAUGAUGCCUGAAGAGCCUUGGUUUUUUG as the variant, how does the “polymerase ribozyme fitness (log ratio)” value read?
**A.** The value was -0.537.

**Q.** Which “polymerase ribozyme fitness (log ratio)” value does the source give for GACCAAUCUGGCCUCAGAGCUCGAGAACAUCUUCGGAUGCAAAGGAGGCAGGCUUCGGUGGCGCGAUAGCGACAACGUCCUCAACCUUCAAUGCAUCCCACCACAUGAUGAUGCCUGAAGAGCCUUGGUUUUUUG here?
**A.** The value was -1.46.

**Q.** With GACCAAUCUGGCCUCAGAGCUCGAGAACAUCUUCGGAUGCAGAGGAGGCAGGCUUCGGUGGCCCGAUAGCGCCAACGUCCUCAACCUCCAAUGCAACCCACCACAUGAUGAUGCCUGAAGAGCCUUGGUUUUUUG as the variant, how does the “polymerase ribozyme fitness (log ratio)” value read?
**A.** The value was -0.969.

**Q.** With GACCAAUCUGGCCUCAGAGCUCGAGAACAUCUUCGGAUGCAGAGGAGGCAGGCUUCGGUAGCGCGAUAGCGCCAACGUCCUCAACCUCCAAUGCAUCCCACCACAUGAUGAUGCCUGAAAAGCCUUGGUUUUUUA as the variant, how does the “polymerase ribozyme fitness (log ratio)” value read?
**A.** Its value is 1.87.

**Q.** Which “polymerase ribozyme fitness (log ratio)” value does the source give for GACCAAUCUGGCCUCAGAGCUCGAGAACAUCUUCGGAUGCAAAGGAGGCAGGCUUCGGUGGCGCGAUAGCGCCAACGUCCUCAACCUCCAAUGCAUCCCACCACAUGAUGAUGCCUGAAGCGCCUUGGUUUUUUG here?
**A.** The value was 0.0348.
